Source: US20220031745A1

Assays:
Assay in all cases: quantitative flow cytometry, anti-myc staining of CD8+ T cells; ABC = number of receptors/cell; UnT T cells read ~350
[1] = target: high affinity anti-Her2 CAR (4D5 variant HIGH scFv, CD8 transmembrane, 41BB, CD3zeta) (UniProt P01732)
[2] = target: low affinity anti-Her2 CAR (4D5 variant LOW scFv, CD8 transmembrane, 41BB, CD3zeta) (UniProt P01732)
[3] = target: low affinity anti-Her2 SynNotch receptor (4D5 variant LOW scFv, mouse Notch1 minimal regulatory region, Gal4 DBD VP64) (mouse) (UniProt Q01705)

ABC (antibody binding capacity) [1]: 19000 | ABC (antibody binding capacity) [2]: 7600 | ABC (antibody binding capacity) [3]: 2550
Substance: Anti-myc Alexa-647 (antibody)
